Values of other authors, collected in PMC9574052.

Biological target: oxytocin receptor (Homo sapiens) (UniProt P30559)
Chain of UniProt P30559 (P30559 whole entry): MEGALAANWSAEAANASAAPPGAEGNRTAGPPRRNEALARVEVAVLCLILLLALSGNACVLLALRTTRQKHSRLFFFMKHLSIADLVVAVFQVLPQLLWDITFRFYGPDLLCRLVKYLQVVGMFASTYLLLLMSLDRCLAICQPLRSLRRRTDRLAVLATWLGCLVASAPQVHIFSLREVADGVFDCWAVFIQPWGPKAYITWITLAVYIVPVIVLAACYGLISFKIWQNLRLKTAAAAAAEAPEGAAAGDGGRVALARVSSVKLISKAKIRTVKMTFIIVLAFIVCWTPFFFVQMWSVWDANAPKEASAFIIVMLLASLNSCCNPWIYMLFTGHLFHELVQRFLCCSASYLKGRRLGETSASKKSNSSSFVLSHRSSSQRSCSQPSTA

Chain of oxytocin (P01178 whole entry, looked up): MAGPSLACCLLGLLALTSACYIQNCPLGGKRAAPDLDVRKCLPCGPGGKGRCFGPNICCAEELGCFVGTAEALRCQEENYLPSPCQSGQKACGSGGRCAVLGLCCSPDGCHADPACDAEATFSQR

Substance: oxytocin (from UniProt P01178)
- Ki: 0.79 nM
